Assay results from article PMC6475807 (Biochemistry, 2018).
Read-outs that look alike come from different tables or passages of the source.

B1: ^coreAFG3L2^E408Q (enzyme)
chain: not shown
B2: ^coreAFG3L2^E575Q (enzyme)
chain: not shown

What was measured:
[1] = target: the molecule itself; assay: SEC
[2] = target: the molecule itself; assay: SEC; remark: listed apart in the source

Row | Protein | stoichiometry N [1] | stoichiometry N [2]
1 | B1 | 6 | 
2 | B2 |  | 6
